# Laboratory results taken from article PMC7329908.
# Legend:
# [1] = target: C. elegans Hsp90 (HSP-90) (C. elegans) (UniProt Q18688); experiment: AUC; sedimentation velocity with fluorescence detection; 600 nM ATTO 488-labelled GRLBDm, 3 μM unlabelled chaperones and cofactors, no nucleotide; 20 mM HEPES, 20 mM KCl, 5 mM MgCl2, 50 μM dexamethasone, pH 7.5; 42,000 rpm, 20 °C
# [2] = target: C. elegans Hsp90 (HSP-90) (C. elegans) (UniProt Q18688); experiment: AUC; sedimentation velocity with fluorescence detection; 600 nM ATTO 488-labelled GRLBDm, 3 μM unlabelled chaperones and cofactors, 2 mM ATPγS; 20 mM HEPES, 20 mM KCl, 5 mM MgCl2, 50 μM dexamethasone, pH 7.5; 42,000 rpm, 20 °C
substance,measurement,setting,value
"ATTO 488-labelled GRLBDm, the ligand-binding domain of the human glucocorticoid receptor stabilized by mutagenesis (F602S/A605V/V702A/E705G/M752T) (domain or fragment)",fraction of GRLBDm bound,[1],0.49
same,fraction of GRLBDm bound,[2],0.22
same,fraction of GRLBDm bound (with Cep23/DAF-41 added),[2],0.28
